B1: Monodin (MA) (designed binder)
chain: FDASNFKDFSSIASASSSWQNQHGSTMIIQVDSFGNVSGQYVNRAEGTGCQNSPYPLTGRVNGTFIDFSVKWNNSTENCNSNTQWTGYAQVNGNNTEIVTRWNLKYEGGSGPAIWQGQDTFQYVPTTE
B2: Rhizavidin (RA) (protein)
chain: FDASNFKDFSSIASASSSWQNQSGSTMIIQVDSFGNVSGQYVNRAQGTGCQNSPYPLTGRVNGTFIAFSVGWNNSTENCNSATGWTGYAQVNGNNTEIVTSWNLAYEGGSGPAIEQGQDTFQYVPTTE

Molecular target: Biotin-AP (biotinylated AP-peptide with a fluorescent dye)
Assay: native-PAGE off-rate under excess biotin, 37 °C

Binder | koff [s⁻¹]
B1 | 5.1e-05
B2 | 4.9e-05
